Source: patent publication US20260217814 (published 2026)

Columns and labels:
human serum albumin [1] = target: T1, human serum albumin (human, UniProt P02768); assay: SPR, pH 5.5
human serum albumin [2] = target: T1, human serum albumin; assay: SPR, pH 7.4

Kd (human serum albumin [1]) [nM] | Kd (human serum albumin [2]) [nM] | Binder
0.947 | 1.37 | A3 HSA arm (antibody) chain 1: EVQLVESGGGLVQPGGSLRLSCAASGFSLSSNAMGWVRQAPGKGLEYIGIISVGGFTYYASWAKGRFTISRDNSKNTVYLQMNSLRAEDTATYFCARDRHGGDSSGAFYLWGQGTLVTVSSASTKGPSVFPLAPSSKSTSGGTAALGCLVKDYFPEPVTVSWNSGALTSGVHTFPAVLQSSGLYSLSSVVTVPSSSLGTQTYICNVNHKPSNTKVDKKVEPKSCGGGGSGGGGSDIQMTQSPSSLSASVGDRVTITCQASQTINYWLAWYQQKPGKAPKLLIYRASTLASGVPSRFSGSGSGTDFTLTISSLQPEDFATYYCQNYYYSTSRSYGFGGGTKLTVLGGGGGSGGGGSGGGGSGGGGSEVQLVESGGGLVQPGGSLRLSCAASGFSFSSDYWMCWVRQAPGKGLEWIGCIYAGDVDDTDYASWARGRFTISRDNSKNTVYLQMNSLRAEDTAVYYCARVDGFDITYFDLWGQGTLVTVSS chain 2: DIQMTQSPSSLSASVGDRVTITCQSSESVYSNNQLSWYQQKPGQPPKLLIYDASDLASGVPSRFSGSGSGTDFTLTISSLQPEDFATYYCAGGFSSSSDTAFGGGTKLTVLGRTRTVAAPSVFIFPPSDEQLKSGTASVVCLLNNFYPREAKVQWKVDNALQSGNSQESVTEQDSKDSTYSLSSTLTLSKADYEKHKVYACEVTHQGLSSPVTKSFNRGECGGGGSGGGGSDIQMTQSPSSLSASVGDRVTINCQASESISSWLAWYQQKPGKRPKLLIYKASTLASGVPSRFSGSGSGTDYTLTISSLQPEDFATYYCQGYYLDSSVDDNVFGGGTKLTVLGGGGGSGGGGSGGGGSGGGGSEVQLVESGGGLVQPGGSLRLSCAASGIDFSTYGISWVRQAPGKGLEWIAYIYPDYGITDYASWVNGRFTISLDNAQNTVYLQMNSLRAEDTAVYYCARSGSYYSRGWGAHYFNLWGQGTLVTVSS
1.67 | 4.79 | A4 HSA arm (antibody) chain 1: EVQLVESGGGLVQPGGSLRLSCAASGFSFSSDYWMCWVRQAPGKGLEWIGCIYAGDVDDTDYASWARGRFTISRDNSKNTVYLQMNSLRAEDTAVYYCARVDGFDITYFDLWGQGTLVTVSSASTKGPSVFPLAPSSKSTSGGTAALGCLVKDYFPEPVTVSWNSGALTSGVHTFPAVLQSSGLYSLSSVVTVPSSSLGTQTYICNVNHKPSNTKVDKKVEPKSCGGGGSGGGGSDIQMTQSPSSLSASVGDRVTITCQSSESVYSNNQLSWYQQKPGQPPKLLIYDASDLASGVPSRFSGSGSGTDFTLTISSLQPEDFATYYCAGGFSSSSDTAFGGGTKLTVLGGGGGSGGGGSGGGGSGGGGSEVQLVESGGGLVQPGGSLRLSCAASGFSLSSNAMGWVRQAPGKGLEYIGIISVGGFTYYASWAKGRFTISRDNSKNTVYLQMNSLRAEDTATYFCARDRHGGDSSGAFYLWGQGTLVTVSS chain 2: DIQMTQSPSSLSASVGDRVTITCQASQTINYWLAWYQQKPGKAPKLLIYRASTLASGVPSRFSGSGSGTDFTLTISSLQPEDFATYYCQNYYYSTSRSYGFGGGTKLTVLGRTRTVAAPSVFIFPPSDEQLKSGTASVVCLLNNFYPREAKVQWKVDNALQSGNSQESVTEQDSKDSTYSLSSTLTLSKADYEKHKVYACEVTHQGLSSPVTKSFNRGECGGGGSGGGGSDIQMTQSPSSLSASVGDRVTINCQASESISSWLAWYQQKPGKRPKLLIYKASTLASGVPSRFSGSGSGTDYTLTISSLQPEDFATYYCQGYYLDSSVDDNVFGGGTKLTVLGGGGGSGGGGSGGGGSGGGGSEVQLVESGGGLVQPGGSLRLSCAASGIDFSTYGISWVRQAPGKGLEWIAYIYPDYGITDYASWVNGRFTISLDNAQNTVYLQMNSLRAEDTAVYYCARSGSYYSRGWGAHYFNLWGQGTLVTVSS
